The target of assay [1] is T1, recombinant human CD123 (human, UniProt P26951 19-305, limits assumed).
T1 construct: also called coated CD123
T1 sequence (looked up): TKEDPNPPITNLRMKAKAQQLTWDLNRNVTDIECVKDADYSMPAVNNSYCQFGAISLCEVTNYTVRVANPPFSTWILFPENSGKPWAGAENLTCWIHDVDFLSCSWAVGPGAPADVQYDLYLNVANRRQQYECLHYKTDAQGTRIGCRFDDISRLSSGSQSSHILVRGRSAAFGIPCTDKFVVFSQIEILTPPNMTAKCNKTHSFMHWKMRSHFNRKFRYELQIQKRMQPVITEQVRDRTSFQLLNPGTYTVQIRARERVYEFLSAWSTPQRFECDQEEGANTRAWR
As to the kind of experiment: ELISA, soluble scFv on coated recombinant human CD123. The method, then: After each round of incubation, the wells were washed 10 times for the first round, 20 times for the second round and 30 times for the third round with phosphate-buffered saline containing 0.05% Tween 20 (PBST) to remove nonspecifically bound phage. Antigen binding phage were eluted with 100 µl 10 µg/ml Trypsin diluted in PBS and mixed with TG1 competent cells for 1 hour at 37° C., and the phage was amplified from the infected cells and used in the next round of biopanning. After the third round of biopanning, 376 clones were randomly picked from the infected TG1 cells and each inoculated into 150 µl 2YT medium containing 100 µg/ml ampicillin and 200 mM glucose in 96-well plates by using the automated colony picking system (Molecular Devices, QPix 460) and were incubated at 37° C. overnight in a shaker at 300 rpm. Next day 10 µl of the bacterial cultures were used to inoculate 150 µl 2YT medium containing 100 µg/ml ampicillin and 50 µM isopropyl-β-d-thiogalactopyranoside in 96-well plates and the plates were further incubated at 30° C. overnight in a shaker at 300 rpm. […] The supernatants were incubated for 1 h at room temperature with recombinant human CD123 coated at 30 ng per well in 384-well plates and washed three times with PBST, (after overnight incubation at 4° C. it was blocked with 2% BSA in PBS containing 0.05% Tween 20 and washed three times with PBS containing 0.05% Tween 20.) After incubation the 3,3,′5,5′-tetramethylbenzidine (TMB) substrate was added, and solution absorbance at 450 nm (A450) measured. Clones that bound to CD123 with a signal to noise ratio of >5 were selected for further characterization.

In assay [2] the target is T2, CD123 on cells (MOLM-13, MOLM14, KG-1a, RS4;11-CD123) (human, UniProt P26951 19-378).
T2 construct: whole, on cells; also called CD123 antigen; CD123/IL-3 receptor alpha
As to the kind of experiment: flow cytometry, soluble scFv on CD123-positive MOLM-13 cells, anti-His-APC. As for the experimental part: Identified binders from ELISA were tested on CD123-positive the cell line MOLM-13. The CD123-negative cell line Jeko-1 CD20KO eGFP served as negative control. For positive control staining REAL270 (alpha CD123) and REAL116 (alpha CD123) antibodies were used, respectively. Soluble scFvs were expressed as described above. The bacterial pellets were disrupted by incubation with 0.3 mL TE buffer (10 mM Tris-HCl containing 1 mM EDTA, pH 8.0 at 37° C.)/well at 37° C., 250 rpm for 18 hours. Cultures were centrifuged at 4000xg, RT for 20 minutes and the supernatant was transferred to a fresh microtiter plate.
For cell staining cell number and viability were determined at MACSQuantX. A cell suspension containing needed cell number were centrifuged at 300xg, 4° C. for 10 minutes and supernatant was discarded. Cells are resuspended by addition of PEB buffer (1xPBS + 2 mM EDTA, 0.5% BSA pH 7.4 at RT) to a concentration of 1E+06 cells/mL. One hundred thousand cells per cell line were added to each well of 96-well V-bottom plate and the plate were centrifuged at 1300xg, 4° C. for 2 minutes. The supernatant was discarded, cells were resuspended in 100 µL of supernatant from periplasmatic preparation and cells were incubated for 10 minutes on ice. Cells were washed by addition of 100 µL PEB followed by centrifugation (1300 x g, 4° C. for 2 minutes), twice. Fifty microliter of secondary (Anti-His-APC conjugated antibody) or REAL antibody (diluted 1:50 in PEB buffer) per well were added and the plate is incubated for 10 minutes in the dark at 4° C. Cells were washed by addition of 100 µL PEB followed by centrifugation (1300xg, 4° C. for 2 minutes), twice. Propidium iodide was diluted 1:100 in Fixing solution (1xPBS + 2 mM EDTA + 1% PFA + 0.3% MeOH + 3% NaAzide) and washed cells were resuspended in 50 µL of the mixture. Signals are measured at MACSQuantX. Signals were analyzed using FlowLogic software. Statistical analysis was performed with VORTEX software.
Background: In flow cytometry, cells or beads pass a laser one at a time.

For assay [3], the target named is T3, recombinant human CD123-Fc (human, UniProt P26951 19-305, limits assumed).
T3 construct: Treated as one molecule; also called CD123-Fc peptide (Novoprotein); recombinant IL3R-alpha Fc-tagged; not shown: Fc tag
T3 sequence (looked up): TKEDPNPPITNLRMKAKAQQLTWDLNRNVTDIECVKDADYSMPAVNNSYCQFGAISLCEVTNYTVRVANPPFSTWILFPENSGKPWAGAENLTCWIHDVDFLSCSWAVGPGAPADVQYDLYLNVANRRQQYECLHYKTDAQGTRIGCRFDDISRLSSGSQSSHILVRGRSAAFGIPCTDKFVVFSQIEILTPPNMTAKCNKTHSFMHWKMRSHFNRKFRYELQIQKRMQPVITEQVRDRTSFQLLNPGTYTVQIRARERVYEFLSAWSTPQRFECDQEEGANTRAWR
As to the kind of experiment: flow cytometry, CAR T cells stained with recombinant IL3R-alpha Fc-tagged, anti-Fc AF647. As for the experimental part:
Half million CAR T cells were washed two times in cold AutoMACS buffer supplemented with 0.5% bovine serum albumin (Miltenyi Biotec, Bergisch Gladbach, Germany) and stained with 2.5 ug/ml CD123-Fc peptide (Novoprotein, Summit, NJ), followed by anti Fc-AF647 conjugate (Jackson ImmunoResearch, West Grove, PA). The 7-Aminoactinomycin D staining (7-AAD, BD Biosciences, San Jose, CA) was added to exclude dead cells. Non-transduced cells (UTD) were used as a negative control. Cells were washed twice with AutoMACS buffer supplemented with 0.5% bovine serum albumin, resuspended in 200 ul staining buffer and acquired by flow cytometry. Flow cytometric analysis was performed on a MACSQuant® 10 Analyzer (Miltenyi Biotec), and data plots were generated using FlowJo software (Ashland, OR).
Lentiviral vectors encoding the CD123 CAR constructs were used for CAR transduction into human primary T cells at multiplicity of infection (MOI) of 40. CAR surface expression of transduced T cells by flow cytometry using recombinant IL3R-alpha Fc-tagged, followed by staining with anti-Fc Alexa Flour 647.

T2 sequence (P26951 19-378): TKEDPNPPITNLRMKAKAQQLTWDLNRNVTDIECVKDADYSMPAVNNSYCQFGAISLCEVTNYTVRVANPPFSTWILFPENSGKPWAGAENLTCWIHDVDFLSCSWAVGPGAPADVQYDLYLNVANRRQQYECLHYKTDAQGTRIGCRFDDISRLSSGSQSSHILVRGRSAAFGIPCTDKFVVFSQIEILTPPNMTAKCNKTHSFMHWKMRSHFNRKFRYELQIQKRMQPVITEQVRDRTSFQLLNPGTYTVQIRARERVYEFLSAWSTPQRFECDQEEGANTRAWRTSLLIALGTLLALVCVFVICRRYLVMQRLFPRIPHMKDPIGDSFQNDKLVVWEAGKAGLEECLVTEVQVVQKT

B1: scFv MB40-F08 (scFv)
scFv: QVQLVQSGAEVKKPGSSVKVSCKASGGTFSSYAISWVRQAPGQGLEWMGGIIPIFGTANYAQKFQGRVTITADESTSTAYMELSSLRSEDTAVYYCARGSGELLYASYYYYYMDVWGKGTTVTVSSGGGGSGGGGSGGGGSQSALTQPASVSGSPGQSITISCTGTSSDVGGYNYVSWYQQHPGKAPKLMIYEVSNRPSGVSNRFSGSKSGNTASLTISGLQAEDEADYYCSSYTSSSPLVFGTGTKVTVL
notes: Soluble scFv carried c-myc and His tags; also called CD123 (MB40-F08)
Turning to B1, the binding result in assay [1] and in assay [2] was “binds” in each case.

B2: scFv MB42-E02 (scFv)
scFv: QVQLVQSGAEVKKPGASVKVSCKASGYTFTSYGISWVRQAPGQGLEWMGWISAYNGNTNYAQKLQGRVTMTTDTSTSTAYMELRSLRSDDTAVYYCARGAYYDFWSGYSWFDPWGQGTLVTVSSGGGGSGGGGSGGGGSQSVLTQPPSVSVAPGQTARIPCGGNNIGSKGVHWYQQKSGQAPVMVVYDDSDRPSGIPERFSGSNSGNTATLTISRVEAGDEADYYCQVWDSSGDLVLFGGGTKLTVL
notes: Soluble scFv carried c-myc and His tags; also called CD123 (MB42-E02)
As to B2, the binding result in assay [1] and in assay [2] was “binds” each time.

B3: scFv MB42-E12 (scFv)
scFv: QVQLVQSGAEVKKPGASVKVSCKASGYTFTSYGISWVRQAPGQGLEWMGWISAYNGNTNYAQKLQGRVTMTTDTSTSTAYMELRSLRSDDTAVYYCARGAYYDFWSSYSWFDPWGQGTLVTVSSGGGGSGGGGSGGGGSSYVLTQPPSVSVAPGKTARITCGGNNIGSKSVHWYQQKPGQAPVLVVYDDSDRPSGIPERFSGSNSGNTATLTISRVEAGDEADYYCQVWDSSSDHVVFGGGTKLTVL
notes: Soluble scFv carried c-myc and His tags; also called CD123 (MB42-E12)
On to B3, for which the binding result in assay [1] and in assay [2] was “binds” in each case.

B4: scFv MB31-A01 (scFv)
scFv: QIQLVQSGAEVKKPGSSVKVSCKASGGTFSSYAISWVRQAPGQGLEWMGGIIPIFGTANYAQKFQGRVTITADESTSTAYMELSSLRSEDTAVYYCARGSGELLYASYYYYYMDVWGKGTTVTVSSGGGGSGGGGSGGGGSQSALTQPASVSGSPGQSITISCTGTSSDVGGYNYVSWYQQHPGKAPELMIYDVSNRPSGVSNRFSGSKSGNTASLTISGLQAEDEADYYCSSYTSSSTPVVFGGGTKLTVL
notes: Soluble scFv carried c-myc and His tags (detection antibodies); also called CD123 (MB31-A01)
Take B4: the binding result in assay [1] and in assay [2] was “binds” throughout.

B5: scFv MB35-E02 (scFv)
scFv: QVQLVQSGAEVKKPGSSVKVSCKASGGTFSSYAISWVRQAPGQGLEWMGGIIPIFGTANYAQKFQGRVTITADESTSTAYMELSSLRSEDTAVYYCARHGGMATMLPYGAFDIWGQGTMVTVSSGGGGSGGGGSGGGGSDIRLTQSPSSLSASVGDRVTITCRASQGISSYLNWYQQKPGKAPKLLIYAASRLQSGVPSRFSGSGSGTDFTLTISSLQPEDFATYYCQQSYSTSLTFGGGTKVEIK
notes: Soluble scFv carried c-myc and His tags; also called CD123 (MB35-E02)
Regarding B5, the binding result in assay [1] and in assay [2] was “binds” throughout.

B6: scFv MB40-H08 (scFv)
scFv: QVQLVQSGAEVKKPGSSVKVSCKASGGTFSSYAISWVRQAPGQGLEWMGGIIPIFGTANYAQKFQGRVTITADESTSTAYMELSSLRSEDTAVYYCARNEWYSYYYYYMGVWGKGTTVTVSSGGGGSGGGGSGGGGSQSALTQPASVSGSPGQSITISCTGTSSDVGGYNYVSWYQQHPGKAPKLMIYEVSNRPSGVSNRFSGSKSGNTASLTISGLQAEDEADYYCSSYTSSSTLVVFGGGTKLTVL
notes: Soluble scFv carried c-myc and His tags; also called CD123 (MB40-H08)
Regarding B6, the binding result in assay [1] and in assay [2] was “binds” throughout.

B7: scFv MB44-H01 (scFv)
scFv: QVQLVQSGAEVKKPGSSVKVSCKASGGTFSSYAISWVRQAPGQGLEWMGGIIPIFGTANYAQRFQGRVTITADESTSTAYMELSSLRSEDTAVYYCARGLGTSYYYYYMDVWGKGTTVTVSSGGGGSGGGGSGGGGSQSVLTQPPSASGSPGQSVTISCTGTSSDVGGYNYVSWYQQHPGKAPKLMIYEVSNRPSGVSNRFSGSKSGNTASLTISGLQAEDEADYYCSSYTSSSTPVVFGGGTKLTVL
notes: Soluble scFv carried c-myc and His tags; also called CD123 (MB44-H01)
As for B7, the binding result in assay [1] and in assay [2] was “binds” throughout.

B8: CAR D0127 CD123 MB35-E02 CD8 BBz (other)
chain: QVQLVQSGAEVKKPGSSVKVSCKASGGTFSSYAISWVRQAPGQGLEWMGGIIPIFGTANYAQKFQGRVTITADESTSTAYMELSSLRSEDTAVYYCARHGGMATMLPYGAFDIWGQGTMVTVSSGGGGSGGGGSGGGGSDIRLTQSPSSLSASVGDRVTITCRASQGISSYLNWYQQKPGKAPKLLIYAASRLQSGVPSRFSGSGSGTDFTLTISSLQPEDFATYYCQQSYSTSLTFGGGTKVEIKAAATTTPAPRPPTPAPTIASQPLSLRPEACRPAAGGAVHTRGLDFACDIYIWAPLAGTCGVLLLSLVITLYCKRGRKKLLYIFKQPFMRPVQTTQEEDGCSCRFPEEEEGGCELRVKFSRSADAPAYQQGQNQLYNELNLGRREEYDVLDKRRGRDPEMGGKPRRKNPQEGLYNELQKDKMAEAYSEIGMKGERRRGKGHDGLYQGLSTATKDTYDALHMQALPPR
notes: Chimeric antigen receptor on transduced human primary T cells; also called EF-1a-CD123 MB35-E02 CD8 BBz
As to B8, in assay [3], the binding result was “binds”.

B9: scFv MB36-A05 (scFv)
scFv: QVQLVQSGAEVKKPGSSVKVSCKASGGTFSSYAISWVRQAPGQGLEWMGGIIPIFGTANYAQKFQGRVTITADKSTSTAYMELSSLRSEDTAVYYCARGGRNSYYYYYMDVWGKGTTVTVSSGGGGSGGGGSGGGGSQSALTQPASVSGSPGQSITISCTGTSSDVGGYNYVSWYQQHPGKAPKLMIYEVSNRPSGVSNRFSGSKSGNTASLTISGLQAEDEADYYCSSYTSSSPVVFGGGTKLTVL
notes: Soluble scFv carried c-myc and His tags; also called CD123 (MB36-A05)
On to B9, for which the binding result in assay [1] and in assay [2] was “binds” in each case.

B10: scFv MB42-D03 (scFv)
scFv: QVQLVQSGAEVKKPGASVKVSCKASGYTFTSYGISWVRQAPGQGLEWMGWISAYNGNTNYAQKLQGRVTMTTDTSTSTAYMELRSLRSDDTAVYYCARGAYYDFWSSYSWFDPWGQGTLVTVSSGGGGSGGGGSGGGGSSYVLTQPPSVSVAPGKTARITCGGNSIGSKSVQWYQQKPGQAPVLVIYDDSDRPSGIPERFSGSNSGNTATLTISRVEAGDEADYYCQVWDSSSDVVFGGGTKLTVL
notes: Soluble scFv carried c-myc and His tags; also called CD123 (MB42-D03)
Regarding B10, the binding result in assay [1] and in assay [2] was “binds” each time.

For the origin of these results see patent publication US20230338424A1 (LENTIGEN TECHNOLOGY, published 2023).
